Earlier results as cited in PMC6225487.
pKd: −log10 of the molar value.

Molecular target: TfR (Homo sapiens) (UniProt P02786)
Sequence (P02786 89-760): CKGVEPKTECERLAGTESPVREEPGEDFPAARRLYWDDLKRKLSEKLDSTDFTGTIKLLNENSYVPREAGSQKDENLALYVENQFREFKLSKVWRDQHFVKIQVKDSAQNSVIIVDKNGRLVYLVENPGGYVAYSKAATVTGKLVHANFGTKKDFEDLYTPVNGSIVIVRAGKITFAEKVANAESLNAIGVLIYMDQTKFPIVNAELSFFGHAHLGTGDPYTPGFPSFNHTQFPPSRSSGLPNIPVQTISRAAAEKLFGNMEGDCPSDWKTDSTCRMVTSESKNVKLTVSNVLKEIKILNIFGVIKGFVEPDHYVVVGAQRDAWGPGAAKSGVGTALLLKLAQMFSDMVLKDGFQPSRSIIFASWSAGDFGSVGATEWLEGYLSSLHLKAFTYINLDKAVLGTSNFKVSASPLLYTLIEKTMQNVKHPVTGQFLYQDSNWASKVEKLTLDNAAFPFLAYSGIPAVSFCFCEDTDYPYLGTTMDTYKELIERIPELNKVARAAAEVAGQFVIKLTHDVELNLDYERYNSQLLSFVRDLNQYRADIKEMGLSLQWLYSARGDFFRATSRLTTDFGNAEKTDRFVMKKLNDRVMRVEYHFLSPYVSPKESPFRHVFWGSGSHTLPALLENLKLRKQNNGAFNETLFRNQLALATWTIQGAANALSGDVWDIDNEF

pKd: 8.00
Substance: T7 peptide
